Test results taken from patent US20250382344A1, “Soluble GLP1/GIP/NPY2 Receptor Triple Agonists” (Boehringer Ingelheim International GmH, priority 2024, published 2025).
Where a chain is given by its changes, count along the chain named. *1 amine or outer side, *2 acyl side, *3 side chain or, on linkers, in order; H or OH if unused. Where no end group is shown, it is not given here. Side-chain parts run from the residue outwards. [ ]: non-standard residue; d: D form. The star is where a group is joined. C20 diacid = O=C(O)CCCCCCCCCCCCCCCCCCC(=O)*; C18 diacid = O=C(O)CCCCCCCCCCCCCCCCC(=O)*; γGlu = O=C(O)[C@H](CCC(=O)[*:2])N[*:1]; NMeQ = CN[C@@H](CCC(N)=O)C(=O)O; AEEA = NCCOCCOCC(=O)O; Aib = CC(C)(N)C(=O)O

T1: human GIP receptor (human, UniProt P48546 22-466)
T1 sequence (looked up): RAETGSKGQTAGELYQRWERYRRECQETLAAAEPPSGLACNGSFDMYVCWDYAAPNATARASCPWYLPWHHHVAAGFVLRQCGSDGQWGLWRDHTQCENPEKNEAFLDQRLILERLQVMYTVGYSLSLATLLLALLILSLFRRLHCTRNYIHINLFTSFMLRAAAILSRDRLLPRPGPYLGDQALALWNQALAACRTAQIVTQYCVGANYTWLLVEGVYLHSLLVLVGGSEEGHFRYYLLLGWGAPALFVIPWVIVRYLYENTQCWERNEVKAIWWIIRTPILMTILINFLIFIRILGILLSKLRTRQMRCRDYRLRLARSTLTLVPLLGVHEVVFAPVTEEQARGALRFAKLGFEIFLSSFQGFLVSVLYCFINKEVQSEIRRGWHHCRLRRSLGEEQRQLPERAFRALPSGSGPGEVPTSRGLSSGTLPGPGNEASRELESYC

T2: human neuropeptide Y2 receptor (human, UniProt P49146 1-381)
T2 sequence (looked up): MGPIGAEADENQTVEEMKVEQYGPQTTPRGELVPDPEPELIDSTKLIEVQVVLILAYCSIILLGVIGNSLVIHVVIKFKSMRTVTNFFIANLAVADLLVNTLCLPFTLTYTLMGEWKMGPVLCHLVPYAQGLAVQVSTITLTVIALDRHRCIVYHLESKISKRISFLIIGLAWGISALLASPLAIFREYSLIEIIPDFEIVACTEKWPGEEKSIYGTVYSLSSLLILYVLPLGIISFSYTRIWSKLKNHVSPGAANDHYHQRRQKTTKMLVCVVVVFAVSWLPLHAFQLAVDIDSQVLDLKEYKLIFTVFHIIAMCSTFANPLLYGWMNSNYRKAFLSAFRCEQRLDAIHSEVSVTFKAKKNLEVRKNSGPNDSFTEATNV

B1: Compound 110 (peptide)
peptide: Y[Aib]EGTFTSDYSI[Aib]LEKQAQ[Aib]AFVRHLINK([AEEA-γGlu-γGlu-γGlu-γGlu-C18 diacid])[Aib]TRQRY-NH2
modifications: N-terminus assumed
SMILES: CC[C@H](C)[C@H](NC(=O)[C@H](CC(C)C)NC(=O)[C@H](Cc1c[nH]cn1)NC(=O)[C@H](CCCNC(=N)N)NC(=O)[C@@H](NC(=O)[C@H](Cc1ccccc1)NC(=O)[C@H](C)NC(=O)C(C)(C)NC(=O)[C@H](CCC(N)=O)NC(=O)[C@H](C)NC(=O)[C@H](CCC(N)=O)NC(=O)[C@H](CCCCN)NC(=O)[C@H](CCC(=O)O)NC(=O)[C@H](CC(C)C)NC(=O)C(C)(C)NC(=O)[C@@H](NC(=O)[C@H](CO)NC(=O)[C@H](Cc1ccc(O)cc1)NC(=O)[C@H](CC(=O)O)NC(=O)[C@H](CO)NC(=O)[C@@H](NC(=O)[C@H](Cc1ccccc1)NC(=O)[C@@H](NC(=O)CNC(=O)[C@H](CCC(=O)O)NC(=O)C(C)(C)NC(=O)[C@@H](N)Cc1ccc(O)cc1)[C@@H](C)O)[C@@H](C)O)[C@@H](C)CC)C(C)C)C(=O)N[C@@H](CC(N)=O)C(=O)N[C@@H](CCCCNC(=O)COCCOCCNC(=O)CC[C@H](NC(=O)CC[C@H](NC(=O)CC[C@H](NC(=O)CC[C@H](NC(=O)CCCCCCCCCCCCCCCCC(=O)O)C(=O)O)C(=O)O)C(=O)O)C(=O)O)C(=O)NC(C)(C)C(=O)N[C@H](C(=O)N[C@@H](CCCNC(=N)N)C(=O)N[C@@H](CCC(N)=O)C(=O)N[C@@H](CCCNC(=N)N)C(=O)N[C@@H](Cc1ccc(O)cc1)C(N)=O)[C@@H](C)O
B2: Compound 130 (peptide)
peptide: Y[Aib]EGTFTSDYSI[Aib]LEEEAQ[Aib]EFVRHLINK([AEEA-AEEA-γGlu-C18 diacid])[Aib]TRQRY-NH2
modifications: N-terminus assumed
SMILES: CC[C@H](C)[C@H](NC(=O)[C@H](CC(C)C)NC(=O)[C@H](Cc1c[nH]cn1)NC(=O)[C@H](CCCNC(=N)N)NC(=O)[C@@H](NC(=O)[C@H](Cc1ccccc1)NC(=O)[C@H](CCC(=O)O)NC(=O)C(C)(C)NC(=O)[C@H](CCC(N)=O)NC(=O)[C@H](C)NC(=O)[C@H](CCC(=O)O)NC(=O)[C@H](CCC(=O)O)NC(=O)[C@H](CCC(=O)O)NC(=O)[C@H](CC(C)C)NC(=O)C(C)(C)NC(=O)[C@@H](NC(=O)[C@H](CO)NC(=O)[C@H](Cc1ccc(O)cc1)NC(=O)[C@H](CC(=O)O)NC(=O)[C@H](CO)NC(=O)[C@@H](NC(=O)[C@H](Cc1ccccc1)NC(=O)[C@@H](NC(=O)CNC(=O)[C@H](CCC(=O)O)NC(=O)C(C)(C)NC(=O)[C@@H](N)Cc1ccc(O)cc1)[C@@H](C)O)[C@@H](C)O)[C@@H](C)CC)C(C)C)C(=O)N[C@@H](CC(N)=O)C(=O)N[C@@H](CCCCNC(=O)COCCOCCNC(=O)COCCOCCNC(=O)CC[C@H](NC(=O)CCCCCCCCCCCCCCCCC(=O)O)C(=O)O)C(=O)NC(C)(C)C(=O)N[C@H](C(=O)N[C@@H](CCCNC(=N)N)C(=O)N[C@@H](CCC(N)=O)C(=O)N[C@@H](CCCNC(=N)N)C(=O)N[C@@H](Cc1ccc(O)cc1)C(N)=O)[C@@H](C)O
B3: Compound 114 (peptide)
peptide: Y[Aib]EGTFTSDYSI[Aib]LEKQAQ[Aib]AFVRHLINK([γGlu-γGlu-γGlu-γGlu-γGlu-γGlu-C20 diacid])[Aib]TR[NMeQ]RY-NH2
modifications: N-terminus assumed
SMILES: CC[C@H](C)[C@H](NC(=O)[C@H](CC(C)C)NC(=O)[C@H](Cc1c[nH]cn1)NC(=O)[C@H](CCCNC(=N)N)NC(=O)[C@@H](NC(=O)[C@H](Cc1ccccc1)NC(=O)[C@H](C)NC(=O)C(C)(C)NC(=O)[C@H](CCC(N)=O)NC(=O)[C@H](C)NC(=O)[C@H](CCC(N)=O)NC(=O)[C@H](CCCCN)NC(=O)[C@H](CCC(=O)O)NC(=O)[C@H](CC(C)C)NC(=O)C(C)(C)NC(=O)[C@@H](NC(=O)[C@H](CO)NC(=O)[C@H](Cc1ccc(O)cc1)NC(=O)[C@H](CC(=O)O)NC(=O)[C@H](CO)NC(=O)[C@@H](NC(=O)[C@H](Cc1ccccc1)NC(=O)[C@@H](NC(=O)CNC(=O)[C@H](CCC(=O)O)NC(=O)C(C)(C)NC(=O)[C@@H](N)Cc1ccc(O)cc1)[C@@H](C)O)[C@@H](C)O)[C@@H](C)CC)C(C)C)C(=O)N[C@@H](CC(N)=O)C(=O)N[C@@H](CCCCNC(=O)CC[C@H](NC(=O)CC[C@H](NC(=O)CC[C@H](NC(=O)CC[C@H](NC(=O)CC[C@H](NC(=O)CC[C@H](NC(=O)CCCCCCCCCCCCCCCCCCC(=O)O)C(=O)O)C(=O)O)C(=O)O)C(=O)O)C(=O)O)C(=O)O)C(=O)NC(C)(C)C(=O)N[C@H](C(=O)N[C@@H](CCCNC(=N)N)C(=O)N(C)[C@@H](CCC(N)=O)C(=O)N[C@@H](CCCNC(=N)N)C(=O)N[C@@H](Cc1ccc(O)cc1)C(N)=O)[C@@H](C)O
B4: Compound 72 (peptide)
peptide: YXEGTFTSDYSIXLEKQAQXAFVRHLINKXTRQRY
modifications: Aib at 2, 13, 20, 30; ArgMe at 34; Lys29 epsilon-amino acylated with C18DA-gGlu-gGlu-gGlu-gGlu-gGlu-gGlu-eLys; C-terminal amide
B5: Compound 156 (peptide)
peptide: B4 peptide with I12A
modifications: Aib at 2, 13, 20, 30; Lys29 epsilon-amino: C18DA-gGlu-gGlu-gGlu-gGlu-gGlu-gGlu-eLys; C-terminal amide
B6: Compound 112 (peptide)
peptide: B4 peptide with I12E
modifications: Aib at 2, 13, 20, 30; Lys29 epsilon-amino: C18DA-gGlu-gGlu-gGlu-gGlu-gGlu-gGlu-eLys; C-terminal amide
B7: Compound 147 (peptide)
peptide: B4 peptide with E15D, K16R
modifications: Aib at 2, 13, 20, 30; Lys29 epsilon-amino: C18DA-gGlu-gGlu-gGlu-gGlu-gGlu-gGlu-eLys; C-terminal amide
B8: Compound 119 (peptide)
peptide: B4 peptide
modifications: Aib at 2, 20, 30; aMeL at 13; Lys29 epsilon-amino: C18DA-gGlu-gGlu-gGlu-gGlu-gGlu-gGlu-eLys; C-terminal amide
B9: Compound 137 (peptide)
peptide: B4 peptide
modifications: Aib at 2, 13, 20, 30; Lys29 epsilon-amino: C18DA-TRX-gGlu-gGlu-gGlu-gGlu-gGlu-gGlu-eLys; C-terminal amide
B10: Compound 129 (peptide)
peptide: Y[Aib]EGTFTSDYSI[Aib]LEEQAQ[Aib]EFVRHLINK([γGlu-γGlu-γGlu-γGlu-C18 diacid])[Aib]TRQRY-NH2
modifications: N-terminus assumed
SMILES: CC[C@H](C)[C@H](NC(=O)[C@H](CC(C)C)NC(=O)[C@H](Cc1c[nH]cn1)NC(=O)[C@H](CCCNC(=N)N)NC(=O)[C@@H](NC(=O)[C@H](Cc1ccccc1)NC(=O)[C@H](CCC(=O)O)NC(=O)C(C)(C)NC(=O)[C@H](CCC(N)=O)NC(=O)[C@H](C)NC(=O)[C@H](CCC(N)=O)NC(=O)[C@H](CCC(=O)O)NC(=O)[C@H](CCC(=O)O)NC(=O)[C@H](CC(C)C)NC(=O)C(C)(C)NC(=O)[C@@H](NC(=O)[C@H](CO)NC(=O)[C@H](Cc1ccc(O)cc1)NC(=O)[C@H](CC(=O)O)NC(=O)[C@H](CO)NC(=O)[C@@H](NC(=O)[C@H](Cc1ccccc1)NC(=O)[C@@H](NC(=O)CNC(=O)[C@H](CCC(=O)O)NC(=O)C(C)(C)NC(=O)[C@@H](N)Cc1ccc(O)cc1)[C@@H](C)O)[C@@H](C)O)[C@@H](C)CC)C(C)C)C(=O)N[C@@H](CC(N)=O)C(=O)N[C@@H](CCCCNC(=O)CC[C@H](NC(=O)CC[C@H](NC(=O)CC[C@H](NC(=O)CC[C@H](NC(=O)CCCCCCCCCCCCCCCCC(=O)O)C(=O)O)C(=O)O)C(=O)O)C(=O)O)C(=O)NC(C)(C)C(=O)N[C@H](C(=O)N[C@@H](CCCNC(=N)N)C(=O)N[C@@H](CCC(N)=O)C(=O)N[C@@H](CCCNC(=N)N)C(=O)N[C@@H](Cc1ccc(O)cc1)C(N)=O)[C@@H](C)O

How the values were obtained:
Test in all cases: cell-based or functional assay
human GLP-1 receptor [1] = target: human GLP-1 receptor (human, UniProt P43220 24-463)
human GIP receptor = target: T1, human GIP receptor
[2] = target: T2, human neuropeptide Y2 receptor
human GLP-1 receptor [3] = target: human GLP-1 receptor (human, UniProt P43220 24-463); remark: listed apart in the source

| Binder | EC50, CreLuc reporter, 0.5% hP (human GLP-1 receptor [1]) | EC50, CreLuc reporter, 100% hP (human GLP-1 receptor [1]) | EC50, CreLuc reporter, 100% hP (human GIP receptor) | EC50, CreLuc reporter, 0.5% hP [2] | EC50, CreLuc reporter, 100% hP [2] | EC50, CreLuc reporter, 0.5% hP (human GIP receptor) | EC50, CreLuc reporter, 0.5% hP (human GLP-1 receptor [3]) | EC50, CreLuc reporter, 100% hP (human GLP-1 receptor [3]) |
| --- | --- | --- | --- | --- | --- | --- | --- | --- |
| B1 | 0.7 nM | 2.3 nM | 3.8 nM | 14.2 nM | 51.4 nM |  |  |  |
| B2 |  | 2.3 nM | 10 nM | 75 nM | 789 nM | 0.5 nM |  |  |
| B3 | 1.8 nM | 10 nM |  | 82.1 nM | 657 nM | 0.5 nM |  |  |
| B4 |  |  |  |  |  |  | 0.6 nM |  |
| B5 | 7 nM | 33.1 nM | 14.8 nM | 16.3 nM | 44.1 nM | 0.8 nM |  |  |
| B6 |  | 31.6 nM | 10.3 nM |  | 27.9 nM | 0.5 nM |  |  |
| B7 | 0.3 nM | 2.3 nM | 5 nM | 11.1 nM | 86.3 nM | 0.2 nM |  |  |
| B8 | 0.1 nM |  | 0.8 nM |  | 43.7 nM |  |  |  |
| B9 |  | 13.7 nM |  | 20.1 nM | 46.4 nM | 0.5 nM |  |  |
| Y[Aib]EGTFTSDYSI[Aib]LEKQAQ[Aib]AFVRHLINK([γGlu-γGlu-γGlu-γGlu-C18 diacid])[Aib]TRQRY-NH2 [Compound 77] |  |  |  |  |  |  |  | 1.8 nM |
| B10 | 0.9 nM | 2.8 nM | 7.1 nM | 213 nM | 827 nM | 0.4 nM |  |  |
